B1: GTP-binding protein YPT32/YPT11 (Saccharomyces cerevisiae), P51996 (parent)
chain: MSNEDYGYDYDYLFKIVLIGDSGVGKSNLLSRFTTDEFNIESKSTIGVEFATRTIEVENKKIKAQIWDTAGQERYRAITSAYYRGAVGALIVYDISKSSSYENCNHWLTELRENADDNVAVGLIGNKSDLAHLRAVPTDEAKNFAMENQMLFTETSALNSDNVDKAFRELIVAIFQMVSKHQVDLSGSGTNNMGSNGAPKGPTISLTPAPKEDKKKKSSNCC
partner: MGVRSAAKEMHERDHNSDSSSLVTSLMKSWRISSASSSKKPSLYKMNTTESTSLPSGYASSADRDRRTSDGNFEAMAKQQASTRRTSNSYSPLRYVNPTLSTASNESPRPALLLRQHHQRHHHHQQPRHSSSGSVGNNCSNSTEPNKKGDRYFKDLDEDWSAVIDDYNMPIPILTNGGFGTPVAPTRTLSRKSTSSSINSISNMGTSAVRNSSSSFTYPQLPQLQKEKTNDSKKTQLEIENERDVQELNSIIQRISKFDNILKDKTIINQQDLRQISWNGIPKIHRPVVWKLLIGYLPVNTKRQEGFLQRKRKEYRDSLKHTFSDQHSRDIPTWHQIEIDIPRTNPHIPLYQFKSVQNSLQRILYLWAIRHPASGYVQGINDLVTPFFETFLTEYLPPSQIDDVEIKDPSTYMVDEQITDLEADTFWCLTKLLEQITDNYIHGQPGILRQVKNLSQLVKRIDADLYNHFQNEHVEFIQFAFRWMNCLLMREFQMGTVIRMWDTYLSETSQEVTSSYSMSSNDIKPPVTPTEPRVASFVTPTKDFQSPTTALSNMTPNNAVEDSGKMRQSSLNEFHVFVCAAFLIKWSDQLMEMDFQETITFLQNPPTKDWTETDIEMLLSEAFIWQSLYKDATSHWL

Variants of: B1
Conditions: with gyp1_yeast GYP1, Q08484

Row | effect of a mutation on the interaction | Variant
1 | disrupting interaction | S27N

Reference: IntAct's records for PubMed 19666511
